# According to US20070020327A1:
# Molecular target: HLA-A*2401 (human)
# Experiment: competition with 125I-labelled standard peptide for purified HLA, gel filtration
# Conditions: not given
row,binding affinity ratio (IC50 of the standard peptide / IC50 of the test peptide),Substance
1,0.23,"… (PSM, position 74, 10 amino acids) (peptide)"
2,0.12,"… (PSA, position 96, 11 amino acids) (peptide)"
3,0.0022,"… (PAP, position 70, 10 amino acids) (peptide)"
4,0.44,"… (PAP, position 213, 9 amino acids) (peptide)"
5,0.0007,"PAP peptide … (position 17, 10 amino acids)"
6,0.0002,"PSM peptide … (position 582, 10 amino acids)"
7,2.5,"… (PAP, position 318, 9 amino acids) (peptide)"
8,0.0017,"PAP peptide … (position 23, 9 amino acids)"
9,0.0026,"PSM peptide … (position 32, 10 amino acids)"
10,0.019,"PSM peptide … (position 31, 9 amino acids)"
11,0.0016,"PAP peptide … (position 17, 9 amino acids)"
12,0.0075,"… (PSM, position 668, 9 amino acids) (peptide)"
13,1.1,"PSM peptide … (position 565, 10 amino acids)"
14,0.44,"… (PSM, position 227, 9 amino acids) (peptide)"

# Molecular target: HLA-A*2401 (human)
# Experiment: competition with 125I-labelled standard peptide for purified HLA, gel filtration; relative binding
# Conditions: not given
row,binding affinity ratio (IC50 of standard peptide / IC50 of test peptide),Substance
1,0.0001,"… (PSA, position 224) (peptide)"
2,0.77,"… (PSM, position 178) (peptide)"
3,0.26,"… (PAP, position 96) (peptide)"
4,0.0007,"… (PSA, position 54) (peptide)"
5,3.2,"… (PSM, position 624) (peptide)"

# Molecular target: HLA-A*2401 (human)
# Experiment: competition with a 125I-labelled standard peptide for purified HLA, gel filtration
# Conditions: not given
row,binding affinity ratio (IC50 of the standard peptide / IC50 of the test peptide),Substance
1,0.0062,"PSA peptide … (position 2, 10 amino acids)"
2,3.2,"PSM peptide … (position 624, 10 amino acids)"
3,0.11,"PSA peptide … (position 9, 9 amino acids)"
4,2.1,"PSA peptide … (position 2, 9 amino acids)"
5,0.0005,"PAP peptide … (position 41, 10 amino acids)"
6,0.36,"PSA peptide … (position 9, 10 amino acids)"

# Molecular target: HLA-A*2401 (human)
# Experiment: competition with 125I-labeled probe peptide for purified HLA, gel filtration
# Conditions: scale: ratio
row,binding affinity ratio (relative to standard peptide),Substance
1,0.001,"PSM peptide … (position 621, 9 amino acids)"
2,0.0067,"PAP peptide … (position 83, 10 amino acids)"
3,0.0001,"PSA peptide … (position 98, 9 amino acids)"

# Molecular target: HLA-A*2401 (human)
# Experiment: inhibition of binding of a 125I-labelled standard peptide to purified HLA, gel filtration
# Conditions: not given
row,binding affinity ratio (IC50 of the standard peptide / IC50 of the test peptide),Substance
1,0.014,"PAP peptide … (position 123, 10 amino acids)"
2,0.0024,"PAP peptide … (position 205, 9 amino acids)"
3,0.0033,"PAP peptide … (position 123, 9 amino acids)"
4,0.0045,"PAP peptide … (position 22, 10 amino acids)"
5,0.031,"PSA peptide … (position 190, 9 amino acids)"
6,12,"PSM peptide … (position 606, 9 amino acids)"

# Molecular target: HLA-A*2401 (human)
# Experiment: competition with a 125I-labelled standard peptide for purified HLA class I, bound and free peptide separated by gel filtration
# Conditions: not given
row,binding affinity ratio (IC50 of the standard peptide / IC50 of the test peptide),Substance
1,0.054,"PSM peptide …, position 409, 10 amino acids"
2,0.0001,"Kallikrein (hK2) peptide …, position 156, 10 amino acids"
3,0.0001,"PSA peptide …, position 152, 10 amino acids"
4,0.055,"PSA peptide …, position 244, 10 amino acids"
5,0.055,"Kallikrein (hK2) peptide …, position 248, 10 amino acids"

# Molecular target: HLA-A*2401 (human)
# Experiment: competitive inhibition of 125I-labelled standard peptide binding to purified HLA, gel filtration
# Conditions: not given
row,binding affinity ratio (IC50 of standard peptide / IC50 of test peptide),Substance
1,0.0001,"PSM peptide … (position 638, 9 amino acids)"
2,0.024,"PAP peptide … (position 309, 10 amino acids)"
3,0.77,"PSM peptide … (position 178, 9 amino acids)"
4,0.11,"PAP peptide … (position 183, 9 amino acids)"

# Molecular target: HLA-A*2401 (human)
# Experiment: competition with a 125I-labelled standard peptide for purified HLA, gel filtration; value relative to the standard peptide
# Conditions: not given
row,binding affinity ratio (IC50 of the standard peptide / IC50 of the test peptide),Substance
1,0.032,"PAP peptide … (position 302, 9 amino acids)"

# Molecular target: HLA-A*2401 molecule, purified HLA class I (human)
# Experiment: competition with 125I-labelled probe peptide for purified HLA, gel filtration; relative binding
# Conditions: not given
row,binding affinity ratio (IC50 of the standard peptide / IC50 of the test peptide),Substance
1,0.0013,"PAP peptide … (position 62, 9 amino acids)"
2,0.0001,"PSA peptide … (position 224, 9 amino acids)"
3,0.26,"PAP peptide … (position 96, 9 amino acids)"
